The record followed here is paper PMC8067709, “Crystal Structure of the Epo1-Bem3 Complex for Bud Growth” (International Journal of Molecular Sciences, 2021).

Data set [1] addresses Scs2-Msp (1-128), N-His (Saccharomyces cerevisiae) (UniProt P40075). As to the kind of experiment: MST; Monolith NT.115; RED-tris-NTA labeled N-His Scs2-Msp (100 nM) with a serial dilution of Epo1, Bem3 or EB complex from 2 mM; 20 mM Tris-HCl pH 8.0, 150 mM NaCl, 4 mM MgCl2, 0.05% Tween 20.
Data set [2] concerns the target T1, Bem3^CC1 (1-99) with 6xHis tag, isolated protein (Saccharomyces cerevisiae, UniProt P32873 1-99).
T1 chain: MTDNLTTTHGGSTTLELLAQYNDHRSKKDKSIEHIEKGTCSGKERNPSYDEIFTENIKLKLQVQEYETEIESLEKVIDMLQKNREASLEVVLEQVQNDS
In words: SPR. (In general: Surface plasmon resonance follows binding to a sensor surface in real time, without labels.)

The target in data set [3] is Epo1^CC2-CC4 (746-943) with 6xHis tag, isolated protein (Saccharomyces cerevisiae). In words: SEC-MALS; Superdex 200 10/300 with DAWN HELEOS II; 100 uL of 2-4 mg/mL protein; 20 mM Tris pH 8.0, 150 mM NaCl, 4 mM MgCl2. A general note: In gel filtration, larger molecules generally elute earlier.
In data set [4] the target is T2, Epo1^CC2-CC4 (746-943) with 6xHis tag, isolated protein.
T2 chain: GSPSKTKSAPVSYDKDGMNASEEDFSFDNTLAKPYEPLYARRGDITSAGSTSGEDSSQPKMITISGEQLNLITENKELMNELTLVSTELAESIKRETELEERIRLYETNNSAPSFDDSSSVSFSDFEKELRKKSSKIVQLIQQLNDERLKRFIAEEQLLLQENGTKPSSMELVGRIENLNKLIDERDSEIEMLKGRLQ
As to the kind of experiment: SPR. As to conditions: chain shown with the change;; parent: 72.65.

Data set [5] concerns the molecule itself. As to the kind of experiment: SEC-MALS; Superdex 200 10/300 with DAWN HELEOS II; 100 uL of 2-4 mg/mL protein; 20 mM Tris pH 8.0, 150 mM NaCl, 4 mM MgCl2.

Where a chain is given by its changes, count along the chain named. Names and notes keep the numbering of the source.

Chain of Scs2-Msp (1-128), N-His (Saccharomyces cerevisiae) (P40075 1-128): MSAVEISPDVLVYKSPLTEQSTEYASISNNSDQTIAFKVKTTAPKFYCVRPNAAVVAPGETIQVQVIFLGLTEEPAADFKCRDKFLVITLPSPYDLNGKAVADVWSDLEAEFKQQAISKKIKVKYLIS

As to “Epo1^CC2-CC4-Bem3^CC1 complex (from UniProt P32873 1-99)”, the Kd in data set [1] was 120 µM.

B1: Epo1^CC2-CC4 (746-943) with 6xHis tag, isolated protein (domain or fragment)
chain: T2 chain
As for B1, the Kd turned out to be 72.7 µM in data set [2] and 170 µM in data set [1]. For the same molecule, in data set [3], the stoichiometry N came to 2.

B2: Epo1CC2-CC4-Q888A (protein)
chain: T2 chain with Q143A
modifications: Entity 1 of 6LP3 is Epo1 (YMR124W) 746-943, so entity position = residue number - 745 (Q888 = 143, K881 = 136, R876 = 131). Q888A is taken from the figure label; the text says Q884A and the legend Q88A. Epo1 CC2-CC4 alone is a homodimer in solution; one chain is given.
For the molecule B2, the affinity in data set [2], expressed as Kd, was 115 µM.

B3: Epo1-CC-K881A (domain or fragment)
chain: T2 chain with K136A
B3 showed a Kd in data set [2] of 375 µM.

B4: Bem3^CC1 (1-99) with 6xHis tag, isolated protein, P32873 R84A (protein)
chain: T1 chain with R84A
Turning to B4, in data set [4], the Kd turned out to be 137 µM.

B5: Bem3^CC1 (1-99) with 6xHis tag, isolated protein (domain or fragment, Saccharomyces cerevisiae, UniProt P32873 1-99, looked up)
chain: T1 chain
notes: Bem3, Saccharomyces cerevisiae, residues 1-99 (CC1 domain); Dimer in solution by MALS; theoretical molecular mass printed as 11.39 kDa; also called N-His-unlabeled Bem3^CC1; wild-type (wt) Bem3^CC1; source: pET-22b construct, purified (Hitrap Q ion-exchange); not shown: 6xHis, N-terminal, kept
For B5, the “stoichiometry N” value in data set [5] worked out at 2.

The term Kd denotes the free concentration of one partner at which half of the binding sites on the other are occupied at equilibrium, for simple one-to-one binding. As usually defined, the stoichiometry N is a count of units in the complex or per binding partner.
